In patent US20250011363A1, “OPTIMIZED SHORTENED PEPTIDE THAT BINDS TO ACETYLCHOLINE RECEPTOR, AND USE THEREOF” (SKINMED CO., LTD., priority 2021, published 2025):

The substances below were run against acetylcholine receptor (Homo sapiens, UniProt P02708) (assay: SPR binding affinity (RU) of optimized 5mer/6mer/7mer peptides, Examples 6-7). Conditions: SPR, peptides tested at 10 μM; 6mer-1 Top sequence (top combinations).
Chain of acetylcholine receptor (P02708 21-457): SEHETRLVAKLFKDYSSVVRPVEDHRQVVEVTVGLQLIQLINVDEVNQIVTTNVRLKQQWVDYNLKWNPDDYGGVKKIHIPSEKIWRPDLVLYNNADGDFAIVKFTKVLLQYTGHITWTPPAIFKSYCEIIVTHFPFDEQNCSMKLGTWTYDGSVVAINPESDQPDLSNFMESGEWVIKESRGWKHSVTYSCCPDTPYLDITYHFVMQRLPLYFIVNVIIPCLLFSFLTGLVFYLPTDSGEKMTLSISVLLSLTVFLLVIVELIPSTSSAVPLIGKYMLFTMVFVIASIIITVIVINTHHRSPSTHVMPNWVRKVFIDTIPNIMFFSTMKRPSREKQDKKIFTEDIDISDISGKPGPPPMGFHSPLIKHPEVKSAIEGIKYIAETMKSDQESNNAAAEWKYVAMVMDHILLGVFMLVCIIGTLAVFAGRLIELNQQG
Outline: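 Single-concentration screen: 10 μM peptide, SPR detection, binding expressed as RU.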
In the case of 6mer-1-1 (KKVISK), the Binding affinity is reported as 122 Ru.
Work on 6mer-1-2 (RKQILR) yielded a Binding affinity of 142 Ru.
For 6mer-1-3 (RKRRSR), the Binding affinity was 154 Ru.
Work on 6mer-1-4 (RKSFYK) yielded a Binding affinity of 139 Ru.
6mer-1-5 (KRQIRK) was tested, and the Binding affinity was 135 Ru.
6mer-1-6 (RKSRCK) gave a Binding affinity of 153 Ru.
6mer-1-7 (KRQYSK) showed a Binding affinity of 126 Ru.
For 6mer-1-8 (RKRRRK), the Binding affinity was 125 Ru.
With 6mer-1-9 (RKSFCK) the Binding affinity was 154 Ru.
6mer-1-10 (KRWRLK) showed a Binding affinity of 139 Ru.
In the case of 6mer-1-11 (KRQFTK), the Binding affinity is reported as 139 Ru.
Work on 6mer-1-12 (KKQICK) yielded a Binding affinity of 128 Ru.
Substance 6mer-1-13 (KRQIQR) has a Binding affinity of 147 Ru.
In the case of 6mer-1-14 (RKRFLK), the Binding affinity is reported as 145 Ru.
Substance 6mer-1-15 (KRQICK) has a Binding affinity of 123 Ru.
6mer-1-16 (KKQYCR) was tested, and the Binding affinity was 136 Ru.
6mer-1-17 (KRVQCR) was tested, and the Binding affinity was 135 Ru.
With 6mer-1-18 (KKQFTR) the Binding affinity was 145 Ru.
For 6mer-1-19 (KRSFYR), the Binding affinity was 135 Ru.
Substance 6mer-1-20 (KKSRYK) has a Binding affinity of 147 Ru.
In the case of 6mer-1-21 (RKWYLK), the Binding affinity is reported as 137 Ru.
Work on 6mer-1-22 (RKRLCK) yielded a Binding affinity of 126 Ru.
6mer-1-23 (KRSVSR) showed a Binding affinity of 153 Ru.
6mer-1-24 (RKVIRK) was tested, and the Binding affinity was 142 Ru.
Work on 6mer-1-25 (KKLIRR) yielded a Binding affinity of 135 Ru.
6mer-1-26 (KKRVLR) showed a Binding affinity of 123 Ru.
6mer-1-27 (KRSFTK) was tested, and the Binding affinity was 142 Ru.
For 6mer-1-28 (RRWISK), the Binding affinity was 125 Ru.
In the case of 6mer-1-29 (KRLISR), the Binding affinity is reported as 124 Ru.
6mer-1-30 (RRQVRR) was tested, and the Binding affinity was 154 Ru.
6mer-1-31 (KRLYCR) gave a Binding affinity of 121 Ru.
6mer-1-32 (RKGQCR) was tested, and the Binding affinity was 121 Ru.
In the case of 6mer-1-33 (KKSYCR), the Binding affinity is reported as 154 Ru.
Substance 6mer-1-34 (RKWLYK) has a Binding affinity of 135 Ru.
In the case of 6mer-1-35 (RRGRQR), the Binding affinity is reported as 136 Ru.
6mer-1-36 (RKWQQK) showed a Binding affinity of 124 Ru.
For 6mer-1-37 (KKWVLR), the Binding affinity was 121 Ru.
With 6mer-1-38 (RRQQTK) the Binding affinity was 126 Ru.
With 6mer-1-39 (RKVYQK) the Binding affinity was 139 Ru.

Same assay, conditions: SPR; peptides tested at 10 μM; 5mer Bottom sequence
5mer-1172 (KIWWR) gave a Binding affinity of 25 Ru.
5mer-1173 (KECKR) showed a Binding affinity of 30 Ru.
5mer-1174 (KYSGK) gave a Binding affinity of 25 Ru.
5mer-1175 (RDMIR) showed a Binding affinity of 30 Ru.
5mer-1176 (KIHFK) gave a Binding affinity of 25 Ru.
In the case of 5mer-1177 (KIPVR), the Binding affinity is reported as 20 Ru.
5mer-1178 (RFDNR) showed a Binding affinity of 22 Ru.
With 5mer-1179 (RMNVR) the Binding affinity was 18 Ru.
Work on 5mer-1180 (KETAK) yielded a Binding affinity of 27 Ru.
5mer-1181 (KKAKR) showed a Binding affinity of 22 Ru.
5mer-1182 (REKWK) showed a Binding affinity of 15 Ru.
5mer-1183 (RHAPK) gave a Binding affinity of 13 Ru.
5mer-1184 (RDSMK) was tested, and the Binding affinity was 14 Ru.
5mer-1185 (KPTGR) gave a Binding affinity of 30 Ru.
With 5mer-1186 (KMWVK) the Binding affinity was 12 Ru.
In the case of 5mer-1187 (KHHIR), the Binding affinity is reported as 27 Ru.
Work on 5mer-1188 (KPSGK) yielded a Binding affinity of 30 Ru.
With 5mer-1189 (RKMDK) the Binding affinity was 11 Ru.
In the case of 5mer-1190 (RFSEK), the Binding affinity is reported as 32 Ru.
5mer-1191 (RMDWK) gave a Binding affinity of 30 Ru.
For 5mer-1192 (RYAKK), the Binding affinity was 28 Ru.
Substance 5mer-1193 (KHWFK) has a Binding affinity of 22 Ru.
For 5mer-1194 (RDNGK), the Binding affinity was 18 Ru.
5mer-1195 (RHWEK) was tested, and the Binding affinity was 19 Ru.
Substance 5mer-1196 (RICIR) has a Binding affinity of 24 Ru.
With 5mer-1197 (KDDAR) the Binding affinity was 24 Ru.
With 5mer-1198 (RAADK) the Binding affinity was 25 Ru.
5mer-1199 (KNNNR) showed a Binding affinity of 29 Ru.
Substance 5mer-1200 (RKNEK) has a Binding affinity of 16 Ru.
